The source of these data is article PMC9712583, “Time-resolved β-lactam cleavage by L1 metallo-β-lactamase” (Nature Communications, 2022).

The data set concerns the molecule itself. Description: SEC; L1 in solution; conditions not given.

B1: L1 metallo-β-lactamase (MBL) from Stenotrophomonas maltophilia (enzyme)
chain: SAAEAPLPQLRAYTVDASWLQPMAPLQVADHTWQIGTEDLTALLVQTAEGAVLLDGGMPQMAGHLLDNMKLRGVAPQDLRLILLSHAHADHAGPVAELKRRTGAHVAANAETAVLLARGGSNDLHFGDGITYPPASADRIIMDGEVVTVGGIAFTAHFMPGHTPGSTAWTWTDTRDGKPVRIAYADSLSAPGYQLKGNPRYPRLIEDYKRSFATVRALPCDLLLTPHPGASNWNYAVGSKASAEALTCNAYADAAEKKFDAQLARETAGTR
notes: L1 metallo-β-lactamase, Stenotrophomonas maltophilia K279a, residues 20-290, amplified from genomic DNA and cloned into pMCSG53; Homotetramer; Active-site residue numbers in the text (H116, H118, D120 ...) appear to follow the standard MBL numbering, not the 20-290 numbering of the construct; also called L1 MBL; source: E. coli BL21 DE3 (Gold), purified (IMAC, TEV cleavage, second IMAC); not …
The stoichiometry N is a count of units in the complex or per binding partner. With B1, the “stoichiometry N” value came to 4.
